{"source": "paper PMC7523096", "about": "(bioRxiv, 2020)", "binders": {"B1": {"name": "CC9.3 mAb (IgG) (antibody, V domains shown)", "VH": "QVQLQESGPGLVKPSETLSLTCTVSGGSIRSDFWSWIRQFPGKGLEWIGYIYYSGSTNYNPSLESRVTISVDTSKNEFSLKLNYVTAADTAIYYCARETRWNWLDSWGQGTLVTVSS", "VL": "DIVMTQSPDSLAVSLGERASINCKSSQTISYISNNKNYLAWYQQKPGQPPRLLIYWASTRESGVPDRFSGGGFGTDFTLTISSLQAEDVAVYYCQQYFNTPWTFGQGTKVEIK"}, "B2": {"name": "CC9.1 mAb (antibody, V domains shown)", "VH": "EVQLVESGGGLVQPGRSLRLSCVAPGFTLGGYGMHWVRQAPGKGLEWVGLISYDGSVQKYGSSVKGRFTISKDNSKNTLYLEMNSLRADDTAVYFCVKGASLGDNWGQGTLVTVSS", "VL": "EIVMTQSPLSLPVTLGQPASISCRSSQSLVYSDGDTYMSWFHQRPGQSPRRLIYKVSNRDSGVPDRFSGSGSGTDFTLKISRVEAEDVGVYYCMQGTHWPYTFGPGTKVEIK"}, "B3": {"name": "CC9.2 mAb (IgG) (antibody, V domains shown)", "VH": "B2 VH", "VL": "B2 VL with S61F"}, "B4": {"name": "second SARS-CoV-2/HCoV-HKU1 cross-reactive mAb from the CC40 donor (other than CC40.8; name not printed in the text) (antibody, V domains shown)", "VH": "EVQLVESGGGVVQPGRSLRLSCVASGFTFSNYGMHWVRQAPGKGLEWVAVMSYDGSVTYYGDSVRGRFTISRDNSKNTLYLQMSSLRTDDTGVYYCAKGQPLDDIWGLGTLVTVSS", "VL": "EIVMTQSPLSLPVSLGQSASISCRSSQSLVHTDGITYLSWFQQRPGQSPRRLLYKVSNRDSGVPDRFSGSGSGTDFTLKISRVEAEDVGVYYCLQGTYWPWTFGQGTKVEIK"}, "B5": {"name": "CC40.8 mAb (IgG) (antibody, V domains shown)", "VH": "EVQLLESGGGLVQPGGSLRLSCAASGFTFSSYVMTWARQAPGKGLEWVSAISGTGYTYYADSVKGRFTVSRDNSKNTLFLQMSSLRAEDTAVYYCAITMAPVVWGQGTTVTVSS", "VL": "SYELTQPPSVSVSPGQTARITCSGDALPKRYAYWYQQKSGQAPILVIYEDKKRPSGIPERLSGSKSGTVATLTISGAQVEDEADYYCYSTDSSGNHAVFGGGTQLTVL"}}, "note": "Residue numbers refer to the chain shown, from its start.", "data": [{"target": "SARS-CoV-2 receptor-binding domain-RBD (residue 320-527) (SARS-CoV-2, Wuhan-Hu-1 (MN908947), UniProt P0DTC2)", "assay": "BLI", "values": [{"binder": "B1", "binding result": "no binding"}, {"binder": "B2", "binding result": "no binding"}, {"binder": "B3", "binding result": "no binding"}, {"binder": "B4", "binding result": "no binding"}, {"binder": "B5", "binding result": "no binding"}]}, {"target": "SARS-CoV-2 RBD-SD1-2 (residue 320-681) (SARS-CoV-2, Wuhan-Hu-1 (MN908947), UniProt P0DTC2)", "assay": "BLI", "values": [{"binder": "B1", "binding result": "no binding"}, {"binder": "B2", "binding result": "no binding"}, {"binder": "B3", "binding result": "no binding"}, {"binder": "B4", "binding result": "no binding"}, {"binder": "B5", "binding result": "no binding"}]}, {"target": "SARS-CoV-2 N-terminal domain-NTD (residue 1-290) (SARS-CoV-2, Wuhan-Hu-1 (MN908947), UniProt P0DTC2)", "assay": "BLI", "values": [{"binder": "B1", "binding result": "no binding"}, {"binder": "B2", "binding result": "no binding"}, {"binder": "B3", "binding result": "no binding"}, {"binder": "B4", "binding result": "no binding"}, {"binder": "B5", "binding result": "no binding"}]}, {"target": "SARS-CoV-2 RBD-SD1 (residue 320-591) (SARS-CoV-2, Wuhan-Hu-1 (MN908947), UniProt P0DTC2)", "assay": "BLI", "values": [{"binder": "B1", "binding result": "no binding"}, {"binder": "B2", "binding result": "no binding"}, {"binder": "B3", "binding result": "no binding"}, {"binder": "B4", "binding result": "no binding"}, {"binder": "B5", "binding result": "no binding"}]}]}
